Data published in US20170267766A1 (PIERRE FABRE MEDICAMENT, published 2017).

Assays:
[1] = biological target: T1, human IGF-1R (native, on cells) (human, UniProt P08069 31-1367); assay: cell-based or functional assay
[2] = biological target: T1, human IGF-1R (native, on cells); assay: FACS titration, MCF-7
Description: The binding properties of a series of anti-IGF-1R antibodies were evaluated by FACS analyses on the human MCF-7 breast adenocarcinoma cell line (ATCC#HTB-22) using increasing antibody concentrations. For that purpose, cells (1×10⁶ cells/ml) were incubated with anti-IGF-1R antibodies for 20 min. at 4° C. in FACS buffer (PBS, 0.1% BSA, 0.01% NaN₃). They were then washed 3 times and incubated with the appropriate secondary antibody coupled with Alexa 488 for 20 additional minutes at 4° C. in the dark before being washed 3 times in FACS buffer. The binding of anti-IGF-1R antibodies was immediately performed on viable cells which were identified using propidium iodide (that stains dead cells). The maximum of signal intensity obtained with each antibody was designed as Bₘₐₓ and expressed in mean of fluorescence intensity (MFI). The EC₅₀ of binding expressed in molarity (M) was calculated using a nonlinear regression analysis (GraphPad Prims 4.0).

[3] = biological target: T1, human IGF-1R (native, on cells); assay: cell-based or functional assay; remark: listed apart in the source
[4] = biological target: T2, monkey IGF-1R (on COS-7 cells) (African green monkey); assay: cell-based or functional assay
[5] = biological target: T1, human IGF-1R (native, on cells); assay: FACS titration, hIGF-1R transfected cells
Description: Briefly, increasing concentrations of chimeric mAbs were incubated with cells for 20 min at 4° C. in FACS buffer (PBS, 0.1% BSA, 0.01% NaN₃). Cells were then washed 3 times and incubated with the appropriate secondary antibody coupled with Alexa 488 before being incubated for 20 additional minutes at 4° C. in the dark and then washed 3 times in FACS buffer. The binding of anti-IGF-1R antibodies was immediately performed on viable cells which were identified using propidium iodide (that stains dead cells). The binding EC₅₀ expressed in molarity (M) was calculated using a nonlinear regression analysis (GraphPad Prims 4.0).

[6] = biological target: T3, rhIR protein (R&D Systems, cat No 1544-IR/CF) (human, UniProt P06213-2 28-944); assay: ELISA, coated rhIR 1 ug/ml
T3 construct: extracellular domain; bought; also called rh Insulin R; recombinant human Insulin Receptor
Description: (§1) In addition three ELISA were performed (either before or after cloning) to study the binding of antibodies on the recombinant human (hIGF-1R) and murine (mIGF-1R) proteins, and on the recombinant human Insulin Receptor (hIR) protein. […] The plates were then blocked with PBS containing 0.5% gelatin (#22151, Serva Electrophoresis GmbH, Heidelberg, Germany) for 2 h at 37° C. Once the saturation buffer discarded by flicking plates, 100 μl of each supernatant dilution were added to the wells (either undiluted hybridoma supernatant either supernatant serial dilutions) and incubated for 1 h at 37° C. […] Then, ELISA plates were washed 3-times and the TMB (#UP664782, Uptima, Interchim, France) substrate is added. After a 10 min incubation time at room temperature, the reaction was stopped using 1 M sulfuric acid and the optical density at 450 nm is measured.

[7] = biological target: T1, human IGF-1R (native, on cells); assay: FACS, MCF7, 4°C, Ab 5 ug/ml
Description: Additionally an internalization assay was performed in order to select only internalizing antibodies. For this assay, the MCF7 tumor cell line was cultured in RMPI 1640 without phenol red with 1% L-glutamine and 10% of […] for 3 days before experiment. Cells were then detached using trypsin and 100 μl of a cell suspension at 4·10⁵ cell/ml are plated in 96-multiwell plates in RPMI1640 without phenol red with 1% L-glutamine and 5% FBS. After a 2 min centrifugation at 2000 rpm, cells were resupended in 50 μl of hybridoma supernatant or control antibody solutions (positive and isotype controls at 1 μg/ml). After a 20 min incubation time at 4° C., cells were centrifuged 2 min at 2000 rpm and resuspended in either cold (4° C.) or warm (37° C.) complete culture medium. Cells were then incubated for 2 hours either at 37° C. or at 4° C. Then cells were washed three times with FACS buffer. An Alexa 488-labeled goat anti-mouse IgG antibody was incubated for 20 minutes and cells were washed three times before FACS analysis on propidium iodide negative cell population.

[8] = biological target: T4, rmIGF-1R protein (R&D Systems, cat No 6630-GR/Fc) (murine, UniProt Q60751 31-936); assay: ELISA, coated rmIGF-1R (Table 8)
T4 construct: extracellular domain; bought; also called murine extracellular domain (ECD) of IGF-1R; not shown: Fc only implied by the catalogue number; not described
T4 sequence (Q60751 31-936): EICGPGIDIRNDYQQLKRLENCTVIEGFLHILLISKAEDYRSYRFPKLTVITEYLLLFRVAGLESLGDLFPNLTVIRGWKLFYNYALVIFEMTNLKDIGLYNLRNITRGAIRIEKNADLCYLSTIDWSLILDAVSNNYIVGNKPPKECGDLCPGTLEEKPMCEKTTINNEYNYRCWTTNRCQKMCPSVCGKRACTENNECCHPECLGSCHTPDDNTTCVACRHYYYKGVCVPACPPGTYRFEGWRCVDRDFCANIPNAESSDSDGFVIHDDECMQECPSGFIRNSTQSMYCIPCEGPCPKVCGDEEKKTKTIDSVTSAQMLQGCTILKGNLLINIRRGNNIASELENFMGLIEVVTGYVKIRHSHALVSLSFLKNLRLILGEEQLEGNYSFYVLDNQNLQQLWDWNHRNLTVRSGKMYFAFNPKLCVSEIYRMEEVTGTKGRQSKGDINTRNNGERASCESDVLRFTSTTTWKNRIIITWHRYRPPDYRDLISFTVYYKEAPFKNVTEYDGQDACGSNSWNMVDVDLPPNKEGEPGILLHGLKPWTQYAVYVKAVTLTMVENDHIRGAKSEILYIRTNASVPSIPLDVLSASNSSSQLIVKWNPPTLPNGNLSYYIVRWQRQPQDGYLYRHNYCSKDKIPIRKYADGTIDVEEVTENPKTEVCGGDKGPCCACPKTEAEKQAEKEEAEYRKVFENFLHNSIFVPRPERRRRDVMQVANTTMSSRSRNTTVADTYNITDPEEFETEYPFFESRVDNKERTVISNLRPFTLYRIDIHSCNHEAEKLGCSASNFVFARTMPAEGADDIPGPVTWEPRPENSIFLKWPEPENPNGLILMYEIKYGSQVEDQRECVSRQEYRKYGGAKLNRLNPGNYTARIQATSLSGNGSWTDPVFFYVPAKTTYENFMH
Description: as §1

[9] = biological target: T1, human IGF-1R (native, on cells); assay: cell-based or functional assay; remark: listed apart in the source
[10] = biological target: T1, human IGF-1R (native, on cells); assay: FACS, Tf hIGF1R+ cells, Ab 5 ug/ml
[11] = biological target: T4, rmIGF-1R protein (R&D Systems, cat No …); assay: ELISA, coated rm IGF-1R, SNT 5 ug/ml
Description: as §1

[12] = biological target: T2, monkey IGF-1R (on COS-7 cells); assay: FACS, Cos-7 (monkey IGF1R+), Ab 5 ug/ml
[13] = biological target: T5, human insulin receptor (on cells) (human, UniProt P06213 28-1382); assay: FACS on hIR+ transfected cells, 4°C
T5 construct: whole, on cells; on stably transfected cells or on IM9 cells; also called hIR; IR
Description: In order to verify the absence of binding of both murine and chimeric antibodies on hIR, a stable cell line expressing the human IR was used. The recognition of human cell surface hIR by both murine and chimeric Ab was performed by FACS analyses. Increasing concentrations of either the murine or the chimeric mAbs were incubated on the hIR′ transfected cell line for 20 minutes at 4° C. in FACS buffer (PBS, 0.1% BSA, 0.01% NaN₃). Cells were then washed 3 times and incubated with the appropriate secondary antibody coupled with Alexa 488 before being incubated for 20 additional minutes at 4° C. in the dark and then washed 3 times in FACS buffer. The binding of anti-IGF-1R antibodies was immediately performed on viable cells which were identified using propidium iodide (that stains dead cells). The binding EC₅₀ expressed in molarity (M) was calculated using a nonlinear regression analysis (GraphPad Prims 4.0). […] The c9G4 was introduced as an irrelevant antibody (isotype control).

Row | Binder | hIGF-1R phosphorylation, % of that induced by IGF-1 (MCF-7, Ab 10 µg/ml) [1] [%] | Bmax [2] [MFI] | EC50 [2] [nM] | % Internalization (MCF-7, 10 µg/ml, 4 h) [3] [%] | ΔMFI [3] [MFI] | % internalisation [4] [%] | ΔMFI [4] [MFI] | Bmax [5] [MFI] | EC50 [5] [nM] | hIGF-1R phosphorylation in response to IGF-1 (western blot, MCF-7) [1] [%] | binding result [6] | MFI 4°C [7] [MFI] | binding result [8] | HalfLife (decay of cell-surface bound antibody on MCF-7 at 37°C) [9] | MFI [10] [MFI] | D.O 450 nm [11] [D.O 450 nm] | MFI [12] [MFI] | binding result [13]
1 | c213B10 (antibody, human IgG1, kappa, group G2; also called chimeric 213B10) heavy: not shown light: DIQMTQTTSSLSASLGDRVTISCRASQDISKYLNWYQQQPDGTIKLLIYYTSRLHSGVPSRFSGRGSGTDYSLTITNLEQEDIATYFCQQGSALPYTFGGGTKLEIKRTVAAPSVFIFPPSDEQLKSGTASVVCLLNNFYPREAKVQWKVDNALQSGNSQESVTEQDSKDSTYSLSSTLTLSKADYEKHKVYACEVTHQGLSSPVTKSFNRGEC | < 20 | 1100 | 0.44 | 85 | 369 | 73 | 101 | 2030 | 0.33 |  |  |  |  |  |  |  |  | 
2 | c219D6 (antibody, human IgG1, kappa, V domains shown, group G2; also called chimeric 219D6) VH: QVQLQQSGPELVKPGDSVKMSCKASGYSFTSYFIHWVKQRPGQGLEWIGWIWPGDGSTKYNEKFKGKTTLTTDKSSSTAYMFLNSLTSEDSAVYFCASPMITPNYAMDYWGQGASVTVSS VL: DIQMTQTTSSLSASLGDRVTISCRASQDISKYLNWYQQQPDGTVKLLIYYTSRLHSGVPSRFSGRGSGTDYSLTISNLEQEDIATYFCQQGSTLPYTFGGGTKLEIKR | < 20 | 993 | 0.47 | 80 | 353 | 74 | 102 | 2520 | 0.55 |  |  |  |  |  |  |  |  | 
3 | c214F8 (antibody, human IgG1, kappa, group G2; also called chimeric 214F8) heavy: not shown light: DIQMTQTTSSLSASLGDRVTFSCRASQDISKYLNWYQQQPDGTIKLLIYYTSRLHSGVPSRFSGRGSGTDYSLTITNLEQEDIATYFCQQGSALPYTFGGGTKLEIKRTVAAPSVFIFPPSDEQLKSGTASVVCLLNNFYPREAKVQWKVDNALQSGNSQESVTEQDSKDSTYSLSSTLTLSKADYEKHKVYACEVTHQGLSSPVTKSFNRGEC | < 20 | 1070 | 0.5 | 87 | 403 | 72 | 98 | 2090 | 0.27 |  |  |  |  |  |  |  |  | 
4 | m212A11 (antibody, V domains shown, murine mAb, hybridoma CNCM I-4773, group G2) VH: QVQLQQSGPELVKPGASVKMSCKASGYTFTSYYIHWVKQRPGQGLEWIGWIWPGDGSTKYNEKFKGKTTLTADKSSSTAYMFLSSLTSEDSAVYFCASPMITPNYAMDYWGQGASVTVSS VL: DIQMTQTTSSLSASLGDRVTISCRASQDINKYLNWYQQQPDGTVKLLIYYTSRLHSGVPSRFSGRGSGTDYSLTISNLEQEDIATYFCQQGSTLPYTFGGGTKLEIK |  |  |  |  |  | 73 | 83 |  |  | > 80 | no binding | 390 | no binding | 14.3 min (unit from p-0380; none on the sheet) | 2190 | 0.102 | 125 | no binding (tested: log [M] about -6.5 (about 3e-7 M))
5 | m219D6 (antibody, V domains shown, murine mAb, hybridoma CNCM I-4736, group G2) VH: QVQLQQSGPELVKPGDSVKMSCKASGYSFTSYFIHWVKQRPGQGLEWIGWIWPGDGSTKYNEKFKGKTTLTTDKSSSTAYMFLNSLTSEDSAVYFCASPMITPNYAMDYWGQGASVTVSS VL: DIQMTQTTSSLSASLGDRVTISCRASQDISKYLNWYQQQPDGTVKLLIYYTSRLHSGVPSRFSGRGSGTDYSLTISNLEQEDIATYFCQQGSTLPYTFGGGTKLEIK |  |  |  |  |  | 71 | 80 |  |  | > 80 | no binding | 349 | no binding | 17.9 min (unit from p-0380; none on the sheet) | 2110 | 0.112 | 114 | no binding (tested: log [M] about -6.5 (about 3e-7 M))
